In US20160264649A1:

Experiments:
Test in all cases: cell-based or functional assay
HIV-1 JRCSF Env (HIV-1) = HIV-1 JRCSF Env (HIV-1) (UniProt P20871)
HIV-1 APV-17 Env (HIV-1) = molecular target: HIV-1 APV-17 Env (HIV-1)
HIV-1 CMU02 Env (HIV-1) = molecular target: HIV-1 CMU02 Env (HIV-1)
[1] = molecular target: HIV-1 MGRM-F1-014 Env (HIV-1)
[2] = molecular target: HIV-1 MGRM-D-011 Env (HIV-1)
[3] = molecular target: HIV-1 MGRM-C-014 Env on pseudovirus (HIV-1)
[4] = molecular target: HIV-1 MGRM-D-004 Env (HIV-1)
[5] = molecular target: HIV-1 MGRM-C-019 Env on pseudovirus (HIV-1)
[6] = molecular target: HIV-1 MGRM-Chronic-B-004 Env on pseudovirus (HIV-1)
[7] = molecular target: HIV-1 MGRM-C-015 Env on pseudovirus (HIV-1)
[8] = molecular target: HIV-1 APV_17 Env on pseudovirus (HIV-1)
[9] = molecular target: HIV-1 MGRM-AE-005 Env (HIV-1)
[10] = molecular target: HIV-1 MGRM-G-011 Env (HIV-1)
[11] = molecular target: HIV-1 MGRM-Chronic-B-018 Env on pseudovirus (HIV-1)
[12] = molecular target: HIV-1 94UG103 Env (HIV-1)
[13] = molecular target: HIV-1 MGRM-AG-002 Env (HIV-1)
[14] = molecular target: HIV-1 IAVI-C18 Env (HIV-1)
[15] = molecular target: HIV-1 MGRM-F1-022 Env (HIV-1)
[16] = molecular target: HIV-1 MGRM-C-006 Env on pseudovirus (HIV-1)
[17] = molecular target: HIV-1 6535.3 (Acute) Env on pseudovirus (HIV-1)
[18] = molecular target: HIV-1 MGRM-G-004 Env (HIV-1)
[19] = molecular target: HIV-1 MGRM-D-029 Env (HIV-1)
[20] = molecular target: HIV-1 TRJ0.58 (Acute) Env on pseudovirus (HIV-1)
[21] = molecular target: HIV-1 MGRM-Chronic-B-020 Env on pseudovirus (HIV-1)
[22] = molecular target: HIV-1 MGRM-F1-008 Env (HIV-1)
[23] = molecular target: HIV-1 92UG001 Env (HIV-1)
[24] = molecular target: HIV-1 MGRM-Chronic-B-008 Env on pseudovirus (HIV-1)
[25] = molecular target: HIV-1 MGRM-C-023 Env on pseudovirus (HIV-1)
[26] = molecular target: HIV-1 92BR020 Env (HIV-1)
[27] = molecular target: HIV-1 MGRM-AG-003 Env (HIV-1)
[28] = molecular target: HIV-1 MGRM-AE-008 Env (HIV-1)
HIV-1 APV-13 Env (HIV-1) = molecular target: HIV-1 APV-13 Env (HIV-1)
[29] = molecular target: HIV-1 MGRM-D-021 Env (HIV-1)
[30] = molecular target: HIV-1 MGRM-AE-006 Env (HIV-1)
[31] = molecular target: HIV-1 92UG046 Env (HIV-1)
[32] = molecular target: HIV-1 MGRM-F1-015 Env (HIV-1)
[33] = molecular target: HIV-1 98IN022 Env on pseudovirus (HIV-1)
[34] = molecular target: HIV-1 QH0692.42 (Acute) Env on pseudovirus (HIV-1)
[35] = molecular target: HIV-1 MGRM-C-001 Env on pseudovirus (HIV-1)
[36] = molecular target: HIV-1 MGRM-C-002 Env on pseudovirus (HIV-1)
[37] = molecular target: HIV-1 MGRM-G-014 Env (HIV-1)
[38] = molecular target: HIV-1 MGRM-F1-010 Env (HIV-1)
[39] = molecular target: HIV-1 92UG005 Env (HIV-1)
[40] = molecular target: HIV-1 MGRM-AG-011 Env (HIV-1)
[41] = molecular target: HIV-1 MGRM-G-027 Env (HIV-1)
[42] = molecular target: HIV-1 MGRM-G-009 Env (HIV-1)
[43] = molecular target: HIV-1 MGRM-Chronic-B-001 Env on pseudovirus (HIV-1)
[44] = molecular target: HIV-1 MGRM-D-005 Env (HIV-1)
[45] = molecular target: HIV-1 MGRM-G-028 Env (HIV-1)
[46] = molecular target: HIV-1 MGRM-Chronic-B-024 Env on pseudovirus (HIV-1)
[47] = molecular target: HIV-1 MGRM-G-013 Env (HIV-1)

Sequence of 1443_C16 (PG16) (TCN-116) (antibody) (VH): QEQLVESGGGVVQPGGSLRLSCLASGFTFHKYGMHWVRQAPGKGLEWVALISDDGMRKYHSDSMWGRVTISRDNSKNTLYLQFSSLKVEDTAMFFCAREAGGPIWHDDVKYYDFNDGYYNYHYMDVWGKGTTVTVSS
Sequence of 1443_C16 (PG16) (TCN-116) (antibody) (VL): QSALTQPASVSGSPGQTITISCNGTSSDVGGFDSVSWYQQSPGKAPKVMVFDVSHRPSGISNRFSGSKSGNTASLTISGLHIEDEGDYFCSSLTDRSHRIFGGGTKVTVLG

1443_C16 (PG16) (TCN-116) (antibody)
neutralization IC50 (HIV-1 JRCSF Env (HIV-1)): < 0.0025 µg/mL | neutralization IC90 (HIV-1 JRCSF Env (HIV-1)): 0.013 µg/mL | neutralization IC50 (HIV-1 APV-17 Env (HIV-1)): > 50 µg/mL | neutralization IC90 (HIV-1 APV-17 Env (HIV-1)): > 50 µg/mL | IC50 (µg/ml), pseudovirus neutralization (HIV-1 CMU02 Env (HIV-1)): 43.6 µg/mL | neutralization IC50 (HIV-1 CMU02 Env (HIV-1)): > 50 µg/mL | neutralization IC90 (HIV-1 CMU02 Env (HIV-1)): > 50 µg/mL | IC50 (pseudovirus neutralization) [1]: 0.01 µg/mL | IC50 (µg/ml), pseudovirus neutralization [2]: 0.01 µg/mL | IC50 [3]: > 50 µg/mL | IC50 (µg/ml), pseudovirus neutralization [4]: 0.01 µg/mL | IC50 [5]: 0.002 µg/mL | IC50 [6]: 0.01 µg/mL | IC50 [7]: 0.26 µg/mL | IC50 [8]: 24.8 µg/mL | IC50 (µg/ml), pseudovirus neutralization [9]: 0.02 µg/mL | IC50 (µg/ml), pseudovirus neutralization [10]: 0.04 µg/mL | IC50 [11]: 0.7 µg/mL | neutralization IC50 [12]: 0.008 µg/mL | neutralization IC90 [12]: 1.59 µg/mL | IC50 (µg/ml), pseudovirus neutralization [13]: 0.03 µg/mL | neutralization IC50 [14]: 0.0067 µg/mL | neutralization IC90 [14]: 0.207 µg/mL | IC50 (pseudovirus neutralization) [15]: 0.08 µg/mL | IC50 [16]: 2.62 µg/mL | IC50 [17]: 36.9 µg/mL | IC50 (µg/ml), pseudovirus neutralization [18]: > 50 µg/mL | IC50 (µg/ml), pseudovirus neutralization [19]: > 50 µg/mL | IC50 [20]: 1.16 µg/mL | IC50 [21]: > 50 µg/mL | IC50 (pseudovirus neutralization) [22]: > 50 µg/mL | IC50 (µg/ml), pseudovirus neutralization [23]: > 50 µg/mL | IC50 [24]: 0.73 µg/mL | IC50 [25]: 0.09 µg/mL | neutralization IC50 [26]: > 50 µg/mL | neutralization IC90 [26]: > 50 µg/mL | IC50 (µg/ml), pseudovirus neutralization [27]: > 50 µg/mL | IC50 (µg/ml), pseudovirus neutralization [28]: 3.25 µg/mL | neutralization IC50 (HIV-1 APV-13 Env (HIV-1)): > 50 µg/mL | neutralization IC90 (HIV-1 APV-13 Env (HIV-1)): > 50 µg/mL | IC50 (µg/ml), pseudovirus neutralization [29]: > 50 µg/mL | IC50 (µg/ml), pseudovirus neutralization [30]: 0.03 µg/mL | IC50 (µg/ml), pseudovirus neutralization [31]: 1.42 µg/mL | IC50 (pseudovirus neutralization) [32]: > 50 µg/mL | IC50 [33]: 0.003 µg/mL | IC50 [34]: > 50 µg/mL | IC50 [35]: 16.8 µg/mL | IC50 [36]: 28.3 µg/mL | IC50 (µg/ml), pseudovirus neutralization [37]: 6.98 µg/mL | IC50 (pseudovirus neutralization) [38]: 0.01 µg/mL | IC50 (µg/ml), pseudovirus neutralization [39]: > 50 µg/mL | neutralization IC50 [39]: > 50 µg/mL | neutralization IC90 [39]: > 50 µg/mL | IC50 (µg/ml), pseudovirus neutralization [40]: 0.002 µg/mL | IC50 (µg/ml), pseudovirus neutralization [41]: 0.01 µg/mL | IC50 (µg/ml), pseudovirus neutralization [42]: > 50 µg/mL | IC50 [43]: > 50 µg/mL | IC50 (µg/ml), pseudovirus neutralization [44]: 19.7 µg/mL | IC50 (µg/ml), pseudovirus neutralization [45]: 3.09 µg/mL | IC50 [46]: 0.01 µg/mL | IC50 (µg/ml), pseudovirus neutralization [47]: > 50 µg/mL

1495_C14 (PGC14) (antibody)
neutralization IC50 (HIV-1 JRCSF Env (HIV-1)): > 50 µg/mL | neutralization IC50 (HIV-1 APV-17 Env (HIV-1)): > 50 µg/mL | IC50 (µg/ml), pseudovirus neutralization (HIV-1 CMU02 Env (HIV-1)): > 50 µg/mL | neutralization IC50 (HIV-1 CMU02 Env (HIV-1)): > 50 µg/mL | IC50 (pseudovirus neutralization) [1]: > 50 µg/mL | IC50 (µg/ml), pseudovirus neutralization [2]: > 50 µg/mL | IC50 [3]: > 50 µg/mL | IC50 (µg/ml), pseudovirus neutralization [4]: > 50 µg/mL | IC50 [5]: 12 µg/mL | IC50 [6]: > 50 µg/mL | IC50 [7]: > 50 µg/mL | IC50 [8]: > 50 µg/mL | IC50 (µg/ml), pseudovirus neutralization [9]: > 50 µg/mL | IC50 (µg/ml), pseudovirus neutralization [10]: > 50 µg/mL | IC50 [11]: > 50 µg/mL | neutralization IC50 [12]: > 50 µg/mL | IC50 (µg/ml), pseudovirus neutralization [13]: > 50 µg/mL | neutralization IC50 [14]: > 50 µg/mL | IC50 (pseudovirus neutralization) [15]: > 50 µg/mL | IC50 [16]: > 50 µg/mL | IC50 [17]: 35 µg/mL | IC50 (µg/ml), pseudovirus neutralization [18]: > 50 µg/mL | IC50 (µg/ml), pseudovirus neutralization [19]: > 50 µg/mL | IC50 [20]: > 50 µg/mL | IC50 [21]: > 50 µg/mL | IC50 (pseudovirus neutralization) [22]: > 50 µg/mL | IC50 (µg/ml), pseudovirus neutralization [23]: > 50 µg/mL | IC50 [24]: > 50 µg/mL | IC50 [25]: > 50 µg/mL | neutralization IC50 [26]: 0.637 µg/mL | IC50 (µg/ml), pseudovirus neutralization [27]: > 50 µg/mL | IC50 (µg/ml), pseudovirus neutralization [28]: > 50 µg/mL | neutralization IC50 (HIV-1 APV-13 Env (HIV-1)): > 50 µg/mL | IC50 (µg/ml), pseudovirus neutralization [29]: > 50 µg/mL | IC50 (µg/ml), pseudovirus neutralization [30]: > 50 µg/mL | IC50 (µg/ml), pseudovirus neutralization [31]: > 50 µg/mL | IC50 (pseudovirus neutralization) [32]: > 50 µg/mL | IC50 [33]: 9 µg/mL | IC50 [34]: > 50 µg/mL | IC50 [35]: > 50 µg/mL | IC50 [36]: > 50 µg/mL | IC50 (µg/ml), pseudovirus neutralization [37]: > 50 µg/mL | IC50 (pseudovirus neutralization) [38]: > 50 µg/mL | IC50 (µg/ml), pseudovirus neutralization [39]: > 50 µg/mL | neutralization IC50 [39]: > 50 µg/mL | IC50 (µg/ml), pseudovirus neutralization [40]: > 50 µg/mL | IC50 (µg/ml), pseudovirus neutralization [41]: > 50 µg/mL | IC50 (µg/ml), pseudovirus neutralization [42]: > 50 µg/mL | IC50 [43]: > 50 µg/mL | IC50 (µg/ml), pseudovirus neutralization [44]: > 50 µg/mL | IC50 (µg/ml), pseudovirus neutralization [45]: > 50 µg/mL | IC50 [46]: > 50 µg/mL | IC50 (µg/ml), pseudovirus neutralization [47]: > 50 µg/mL
